Reference: IntAct's records for PubMed 9753447

B1: Ferredoxin--NADP reductase (Anabaena sp. (strain PCC 7119)), P21890 (parent)
chain: MSNQGAFDGAANVESGSRVFVYEVVGMRQNEETDQTNYPIRKSGSVFIRVPYNRMNQEMQRITRLGGKIVTIQTVSALQQLNGRTTIATVTDASSEIAKSEGNGKATPVKTDSGAKAFAKPPAEEQLKKKDNKGNTMTQAKAKHADVPVNLYRPNAPFIGKVISNEPLVKEGGIGIVQHIKFDLTGGNLKYIEGQSIGIIPPGVDKNGKPEKLRLYSIASTRHGDDVDDKTISLCVRQLEYKHPESGETVYGVCSTYLTHIEPGSEVKITGPVGKEMLLPDDPEANVIMLATGTGIAPMRTYLWRMFKDAERAANPEYQFKGFSWLVFGVPTTPNILYKEELEEIQQKYPDNFRLTYAISREQKNPQGGRMYIQDRVAEHADELWQLIKNQKTHTYICGLRGMEEGIDAALSAAAAKEGVTWSDYQKDLKKAGRWHVETY
B2: Ferredoxin--NADP reductase (Anabaena sp. (strain PCC 7119)), P21890 (parent)
chain: B1 chain
partner: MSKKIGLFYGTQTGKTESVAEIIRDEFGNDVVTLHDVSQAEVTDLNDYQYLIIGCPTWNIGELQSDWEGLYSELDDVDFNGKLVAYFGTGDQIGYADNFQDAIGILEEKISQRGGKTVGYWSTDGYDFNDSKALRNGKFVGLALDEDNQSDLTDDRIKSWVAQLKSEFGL

Variants of: B1
Settings: with fer1_nosso petF

Effect of a mutation on the interaction, decreasing interaction:
K206S
K206Q
K206E

Variants of: B2
Settings: with flav_nosso isiB

Effect of a mutation on the interaction, decreasing interaction:
K206S
K206Q
K206E
